Measured values as given in article PMC8617172, “Architecture of the outer-membrane core complex from a conjugative type IV secretion system” (Nature Communications, 2021).

Tests used:
Assay in all cases: cryo-EM structure; OMCC of TraB-strep, TraK and TraV co-expressed in E. coli, purified from membranes in 50 mM Tris-HCl pH 7.5, 300 mM NaCl, 0.23% w/v LDAO; 0.1 mg/ml on Lacey grids with ultrathin carbon; single-particle maps with C17 (inner ring, 3.3 Å), C13 (outer ring, 3.4 Å) and C1 (5.7 Å) symmetry
[1] = molecular target: TraB (pED208 F-T4SS outer-membrane core complex protein, VirB10 homologue), strep-tagged (E. coli (plasmid pED208))
[2] = molecular target: TraV (pED208 F-T4SS outer-membrane core complex lipoprotein, VirB7 homologue) (E. coli (plasmid pED208)) (UniProt P41069)
[3] = molecular target: the molecule itself

## TraK (pED208 F-T4SS outer-membrane core complex protein, VirB9 homologue) (natural protein)
[1]
  stoichiometry N (TraK per TraB): 1.53

## TraV (pED208 F-T4SS outer-membrane core complex lipoprotein, VirB7 homologue) (from UniProt P41069 19-171) (natural protein)
[1]
  stoichiometry N (TraV per TraB): 1.53
[2]
  stoichiometry N: 26 chains

## TraB (pED208 F-T4SS outer-membrane core complex protein, VirB10 homologue), strep-tagged (natural protein)
[1]
  stoichiometry N: 17 chains

B1: TraK (pED208 F-T4SS outer-membrane core complex protein, VirB9 homologue) (natural protein)
chain: AQSPATISLPQGGQFRLSISNTDPNMIFIPGDKVTAITAPGGMLADKRLTTAGGVLFTSVATRTFTIFVETALGQTFSVVATPVKGEGRVYRLMSAEPPSRPETRKWETAQAYEKLLISLNRAVLTGDIPDGYGEVKPLSDGIRLPGGFSVTPLKAWAGDQLRADRYELRNANTWGVALREQDFWKPGVRAVMFDNNAQTLMGGGRMTVTVIRGNG
notes: TraK1 and TraK2 are two conformations of the same chain; 26 copies in the whole OMCC; also called TraK (VirB9); TraK1
[3]
  stoichiometry N: 26 chains
